Molecular target: ClpA (E. coli) (UniProt P0ABH9)
Assay: cell-based or functional assay

Chain of UniProt P0ABH9 (P0ABH9 whole entry): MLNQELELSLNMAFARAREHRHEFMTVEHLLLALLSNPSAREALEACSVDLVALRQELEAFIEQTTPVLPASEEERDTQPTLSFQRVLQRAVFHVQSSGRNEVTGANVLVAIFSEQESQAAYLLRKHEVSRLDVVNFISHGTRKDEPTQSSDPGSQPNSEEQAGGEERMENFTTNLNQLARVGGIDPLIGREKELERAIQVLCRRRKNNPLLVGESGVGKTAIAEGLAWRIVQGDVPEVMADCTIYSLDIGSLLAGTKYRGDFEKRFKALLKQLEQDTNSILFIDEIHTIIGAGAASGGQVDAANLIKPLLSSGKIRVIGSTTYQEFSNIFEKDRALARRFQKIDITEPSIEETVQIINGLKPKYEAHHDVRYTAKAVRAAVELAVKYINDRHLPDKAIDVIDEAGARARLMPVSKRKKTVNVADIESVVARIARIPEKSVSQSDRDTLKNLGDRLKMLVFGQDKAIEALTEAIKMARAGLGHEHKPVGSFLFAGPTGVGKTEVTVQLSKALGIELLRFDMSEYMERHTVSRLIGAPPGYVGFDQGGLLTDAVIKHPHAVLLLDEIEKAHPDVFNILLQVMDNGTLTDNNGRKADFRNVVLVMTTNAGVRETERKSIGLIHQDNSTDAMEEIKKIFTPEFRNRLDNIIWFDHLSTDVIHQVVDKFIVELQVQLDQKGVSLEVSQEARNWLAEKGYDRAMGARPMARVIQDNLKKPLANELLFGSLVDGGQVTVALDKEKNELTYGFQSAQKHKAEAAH

Substance: ClpS
- MDH activity (reactivation of heat-aggregated malate dehydrogenase), rate and yield: > 2 fold
